Entries after “also recorded” stand apart in the source; their conditions may differ.

One test has as its target T1, recombinant human LAMP2 (Homo sapiens, UniProt P13473).
T1 construct: purchased R&D Systems 6228-LM
As to the kind of experiment: Specificity ELISA on recombinant human LAMP2. It counts as binding. On the procedure:
LAMP2 is the closest member of the LAMP family with 35% sequence identity to LAMP1. […] Anti-LAMP1 antibodies were added to the plates and detected by using rabbit anti-mouse IgG conjugated with horseradish peroxidase (Sigma; #A9044). Antibody binding was visualized by adding TMB-H2O2 buffer and read at a wavelength of 450 nm.
LAMP2 is the closest member of the LAMP family with 35% sequence identity to LAMP1. Specificity of MAb4 was evaluated by ELISA as described in example 4.6 with either LAMP1 or LAMP2 soluble proteins, as shown in FIG. 41.

Test [1] deals with cynomolgus LAMP1 expressed at the cell surface of recombinant HCT116. Nature of the test: FACS on recombinant HCT116 stable clones expressing cynomolgus LAMP1. It counts as binding, cynomolgus monkey. Conditions: HCT116 stable clone. On the procedure: HCT116 cells were infected by a lentiviral vector allowing stable integration of the human or the cynomolgus LAMP1 CDS in genomic DNA of cells. Individual clones with different densities of human or cynomolgus LAMP1 cell surface localization were derived from a pool of HCT116 infected cells. […] 100 μL/well of goat anti-human IgG conjugated with Alexa488 (Invitrogen; #A11013) was added for 1 h at 4° C. and washed two times with PBS 1% BSA. The antibody binding was evaluated after centrifugation and resuspension of cells in 100 μl fixing solution (paraformaldehyde at 4% in PBS). Samples were read using Galaxy® Flow Cytometry System (Partec). EC50 values were estimated using BIOST@T-SPEED software.
Chain of cynomolgus LAMP1 expressed at the cell surface of recombinant HCT116 (as listed by the source): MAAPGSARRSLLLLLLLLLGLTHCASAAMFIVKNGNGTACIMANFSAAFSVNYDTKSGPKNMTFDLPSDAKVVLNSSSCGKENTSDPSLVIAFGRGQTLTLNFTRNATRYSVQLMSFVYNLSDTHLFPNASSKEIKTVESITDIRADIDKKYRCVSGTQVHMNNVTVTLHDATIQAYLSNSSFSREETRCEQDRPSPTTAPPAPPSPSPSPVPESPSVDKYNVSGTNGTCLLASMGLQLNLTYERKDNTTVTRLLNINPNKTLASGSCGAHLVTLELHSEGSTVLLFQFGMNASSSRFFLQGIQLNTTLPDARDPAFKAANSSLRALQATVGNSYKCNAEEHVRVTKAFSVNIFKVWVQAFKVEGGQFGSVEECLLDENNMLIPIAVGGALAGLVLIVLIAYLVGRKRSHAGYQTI
100 μL/well of goat anti-mouse IgG conjugated with Alexa647 (Invitrogen; #A2135) was added for 45 min at 4° C. and washed three times with PBS 1% BSA. The antibody binding was evaluated after centrifugation and re-suspension of cells by adding 200 μl/well PBS 1% BSA and read using Guava® easyCyte™ 8HT Flow Cytometry System. EC50 values were estimated using BIOST@T-SPEED software.

For test [2], the target named is T2, recombinant human LAMP1 coated on plate (Homo sapiens, UniProt P11279).
T2 construct: made in house; host or cells: HEK293 (293-F), transient expression, IMAC-purified
T2 sequence (P11279 with tags, fused parts or gaps): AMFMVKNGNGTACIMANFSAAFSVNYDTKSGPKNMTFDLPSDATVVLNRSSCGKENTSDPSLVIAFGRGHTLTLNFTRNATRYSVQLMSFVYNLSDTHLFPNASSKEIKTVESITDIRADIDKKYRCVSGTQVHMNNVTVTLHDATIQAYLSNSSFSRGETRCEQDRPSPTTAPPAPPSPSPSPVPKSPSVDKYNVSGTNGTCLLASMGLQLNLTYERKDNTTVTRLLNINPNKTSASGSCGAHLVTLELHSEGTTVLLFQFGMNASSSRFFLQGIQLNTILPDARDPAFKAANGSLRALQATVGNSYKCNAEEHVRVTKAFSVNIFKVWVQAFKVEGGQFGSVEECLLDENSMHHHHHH
As to the kind of experiment: Binding competition between anti-LAMP1 mAbs by ELISA. The source says:
MAb format was chosen so that the two mAbs had different Fc domains (either human or murine). […] The results were reported as a percentage of the value obtained from the mAb alone at the same concentration.
MAb format was chosen so that the two mAbs had different Fc domains (either human or murine). Individual measurements of mAb binding could be performed specifically by their unique specific binding to Fc (with Peroxidase-AffiniPure Goat Anti-Human IgG Ab, Fcγ Fragment Specific (Jackson 109-035-098) or with Peroxidase-AffiniPure Goat Anti-Mouse IgG Ab, Fcγ Fragment Specific (Jackson 115-035-164)). Results were reported as a percentage of the value obtained from the mAb alone at the same concentration, see Table 8.

The target of test [3] is T3, LAMP1 in FFPE colon adenocarcinoma PDX CR-LRB-010P and human breast carcinoma (Homo sapiens, UniProt P11279).
T3 construct: from tissue; host or cells: human tumoral and non-tumoral tissue sections and PDX tumour sections (frozen-OCT, AFA, FFPE)
T3 sequence (P11279 29-417): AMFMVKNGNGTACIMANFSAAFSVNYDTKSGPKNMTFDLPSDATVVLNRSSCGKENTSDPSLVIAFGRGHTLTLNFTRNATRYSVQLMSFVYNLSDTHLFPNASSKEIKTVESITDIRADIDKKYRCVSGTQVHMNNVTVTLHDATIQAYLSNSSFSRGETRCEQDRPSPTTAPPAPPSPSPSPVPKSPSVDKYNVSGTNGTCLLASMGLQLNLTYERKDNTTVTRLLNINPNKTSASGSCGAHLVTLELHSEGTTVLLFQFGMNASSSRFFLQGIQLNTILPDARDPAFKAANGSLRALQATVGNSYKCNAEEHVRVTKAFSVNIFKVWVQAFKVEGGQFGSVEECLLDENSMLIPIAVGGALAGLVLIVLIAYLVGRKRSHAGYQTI
Nature of the test: IHC on FFPE tumor tissue, LAMP1 membrane reinforcement. Conditions: FFPE samples. An excerpt: IHC analysis of tumor tissues from biobanks or from hospitals before or during patient treatment is routinely done with formalin-fixed paraffin-embedded (FFPE) samples. […] One of the reasons is probably the effect of the formalin fixative combined to the complexity of the protein. Samples processed in frozen OCT or AFA are not routinely prepared in hospitals. Therefore, there is a need to have a mAb that would allow complete and fast coverage of the FFPE tumor biobanks and hospital samples.
Rabbit polyclonal antibodies generated with peptides described in example 17.1.1 were tested by IHC on FFPE sample of colon adenocarcinoma patient derived xenograft CR-LRB-010P and human breast carcinoma. After antigen retrieval procedure and endogen biotins blocking steps, slides were incubated with the primary anti-antibody for 1 hour at 24° C. Negative controls were performed by omission of the primary antibody. The biotin free anti-rabbit UltraMap™ horseradish peroxidase (HRP) conjugate (760-4315, Ventana Medical Systems, Inc, USA) was used as secondary antibody system according to manufacturer's recommendations. A couterstaining step was done with hematoxylin (760-2037, Ventana Medical Systems, Inc, USA) and bluing reagent was applied (760-2037, Ventana Medical Systems, Inc, USA). Stained slides were dehydrated and coverslipped with cytoseal XYL (8312-4, Richard-Allan Scientific, USA).
As the same manner as in example 17.1.2, IHC screening was performed with the hybridoma supernatant to identify mouse monoclonal antibody showing LAMP1 membrane reinforcement on FFPE sample of colon adenocarcinoma patient derived xenograft CR-LRB-010P. The biotin free anti-mouse UltraMap™ horseradish peroxidase (HRP) conjugate (760-152, Ventana Medical Systems, Inc, USA) was used as secondary antibody system according to manufacturer's recommendations.

Setting [4] is: mAb alone 0.06 mg/L, Secondary Ab Anti-Human IgG_HRP.
Setting [5] is: mAb alone 0.06 mg/L, Secondary Ab Anti-Mouse IgG_HRP.
Where [6] appears, read: mAb alone 15 mg/L, Secondary Ab Anti-Human IgG_HRP.
Where [7] appears, read: mAb alone 15 mg/L, Secondary Ab Anti-Mouse IgG_HRP.

T1 sequence (P13473 with tags, fused parts or gaps): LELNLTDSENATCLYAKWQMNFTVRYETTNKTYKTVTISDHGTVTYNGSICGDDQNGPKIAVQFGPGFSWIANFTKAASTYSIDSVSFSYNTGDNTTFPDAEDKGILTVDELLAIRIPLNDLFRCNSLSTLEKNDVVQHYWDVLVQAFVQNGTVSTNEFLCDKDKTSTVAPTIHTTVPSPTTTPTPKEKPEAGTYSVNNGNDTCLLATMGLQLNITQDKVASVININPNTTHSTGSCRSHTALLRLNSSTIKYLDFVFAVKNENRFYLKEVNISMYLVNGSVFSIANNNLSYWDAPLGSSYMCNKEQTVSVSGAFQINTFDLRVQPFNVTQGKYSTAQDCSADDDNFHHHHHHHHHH

B1: MAb2: murine monoclonal anti-LAMP1 antibody, VH SEQ ID NO: 8, VL SEQ ID NO: 12 (antibody, V domains shown)
VH: QVQLQQSAAELARPGASVKMSCKASGYTFTSYTMHWVKQRPGQGLEWIGYFNPSSGYPEYNQKFKDKTTLTADKSSNTAFIQLNSLTSEDSAVYYCSRGYYYGSRGYALDFWGQGASVTVSS
VL: NIVLTQSPVSLAVSLGQRATISCRASESVDINGNTFMHWYQQKPGQSPKLVIYAASNIESGVPARFSGSGSSTDFTFTIDPVEADDVATYYCQQNIEDPWTFGGGTKVEIK
modifications: antibod fragment; antibody fragment
As to B1, in the test with recombinant human LAMP2, the “binding to LAMP2” value is on record as “No binding”. Besides, the EC50 in test [1] was found to be 6.6 nM. In addition, in test [2] (ELISA), the “competition between MAb2 and MAb3 for binding to LAMP1” value is recorded as “partially compete”. Further, the “competition with H4A3 for binding to LAMP1” value in test [2] (ELISA) is “partially competes”. Besides, the “competition with MAb1 for binding to LAMP1” value in test [2] (ELISA) is on record as “No competition was observed; also recorded: does not compete”. Moreover, the “Percentage of signal compared to mAb control alone” value in test [2] (setting [4]) was determined as 0%; in test [2] (setting [5]), 100%; in test [2] (setting [6]), 0%; in test [2] (setting [7]), 100%. Further, in test [3], the “LAMP1 membrane reinforcement in FFPE format by IHC” value is “can not lead to the detection of LAMP1 reinforcement in FFPE format”.

B2: MAb1: murine monoclonal anti-LAMP1 antibody, VH SEQ ID NO: 1, VL SEQ ID NO: 5 (antibody, V domains shown)
VH: QVQLQQSGAELVKPGASVKMSCKASGYIFTNYNIHWVKKSPGQGLEWIGAIYPGNGDAPYSQKFKDKATLTADKSSSTTYMQLSRLTSEDSAVYYCVRANWDVAFAYWGQGTLVSVSA
VL: DIQMTQSPPSLSASLGGKVTITCKASQDIDRYMAWYQDKPGKGPRLLIHDTSTLQPGIPSRFSGSGSGRDYSFSISNLEPEDIATYYCLQYDNLWTFGGGTKLEIK
modifications: Antibody Fragment; antibody fragment
For the molecule B2, the “binding to LAMP2” value with recombinant human LAMP2 was “No binding”. Moreover, the EC50 in test [1] was determined as 5.5 nM. Also, the “competition with H4A3 for binding to LAMP1” value in test [2] (ELISA) is reported as “does not compete”. For the same molecule, the “Percentage of signal compared to mAb control alone” value in test [2] (setting [4]) came to 0%; in test [2] (setting [5]), 100%; in test [2] (setting [6]), 0%; in test [2] (setting [7]) it was 100%. For the same molecule, the “LAMP1 membrane reinforcement in FFPE format by IHC” value in test [3] was “can not lead to the detection of LAMP1 reinforcement in FFPE format”.

Source of the values: patent publication US9809653B2, “Anti-LAMP1 antibodies and antibody drug conjugates, and uses thereof” (SANOFI, priority 2012, dated 2017).
